We go through two molecules from patent US20110182911A1 (published 2011).

For assay [1], the target named is recombinant human BMP-4 (human) (UniProt P12644). As to the kind of experiment: cell-based or functional assay.
Another assay has as its target recombinant human BMP-2 (human, UniProt P12643 283-396). As to the kind of experiment: cell-based or functional assay.

Sequence of recombinant human BMP-4 (human) (P12644 293-408 limits assumed): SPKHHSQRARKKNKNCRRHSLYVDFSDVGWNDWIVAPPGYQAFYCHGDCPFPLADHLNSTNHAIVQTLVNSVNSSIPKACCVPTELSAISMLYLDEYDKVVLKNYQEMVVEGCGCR
Sequence of recombinant human BMP-2 (P12643 283-396 limits assumed): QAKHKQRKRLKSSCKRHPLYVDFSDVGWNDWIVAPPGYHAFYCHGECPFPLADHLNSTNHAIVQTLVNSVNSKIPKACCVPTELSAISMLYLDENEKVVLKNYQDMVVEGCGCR

For “bovine fetuin (from UniProt P12763 19-359)”, in assay [1], the alkaline phosphatase (ALP) activity in C2C12 cells; molar ratio of antagonist to BMP at which the BMP-induced increase is completely inhibited (molar ratio (bAHSG:rhBMP-4)) is greater than 56800 and the alkaline phosphatase (ALP) activity in C2C12 cells; molar ratio of antagonist to BMP at which the BMP-induced increase is completely inhibited (molar ratio (fetuin:rhBMP-4)) is greater than 55000.

B1: recombinant mouse Noggin (other, UniProt P97466 28-232, looked up)
chain: QHYLHIRPAPSDNLPLVDLIEHPDPIFDPKEKDLNETLLRSLLGGHYDPGFMATSPPEDRPGGGGGPAGGAEDLAELDQLLRQRPSGAMPSEIKGLEFSEGLAQGKKQRLSKKLRRKLQMWLWSQTFCPVLYAWNDLGSRFWPRYVKVGSCFSKRSCSVPEGMVCKPSKSVHLTVLRWRCQRRGGQRCGWIPIQYPIISECKCSC
With B1, the “alkaline phosphatase (ALP) activity in C2C12 cells; molar ratio of antagonist to BMP at which the BMP-induced increase is completely inhibited” value with recombinant human BMP-2 is 1.1 molar ratio (rmNGN:rhBMP-2).
